# Assay results: publication PMC10844655, “G-quadruplexes promote the motility in MAZ phase-separated condensates to activate CCND1 expression and contribute to hepatocarcinogenesis”
# Numbering of substitutions follows the chain as printed.
# T1: MAZ WT (human, UniProt P56270 1-477)
# T1 sequence: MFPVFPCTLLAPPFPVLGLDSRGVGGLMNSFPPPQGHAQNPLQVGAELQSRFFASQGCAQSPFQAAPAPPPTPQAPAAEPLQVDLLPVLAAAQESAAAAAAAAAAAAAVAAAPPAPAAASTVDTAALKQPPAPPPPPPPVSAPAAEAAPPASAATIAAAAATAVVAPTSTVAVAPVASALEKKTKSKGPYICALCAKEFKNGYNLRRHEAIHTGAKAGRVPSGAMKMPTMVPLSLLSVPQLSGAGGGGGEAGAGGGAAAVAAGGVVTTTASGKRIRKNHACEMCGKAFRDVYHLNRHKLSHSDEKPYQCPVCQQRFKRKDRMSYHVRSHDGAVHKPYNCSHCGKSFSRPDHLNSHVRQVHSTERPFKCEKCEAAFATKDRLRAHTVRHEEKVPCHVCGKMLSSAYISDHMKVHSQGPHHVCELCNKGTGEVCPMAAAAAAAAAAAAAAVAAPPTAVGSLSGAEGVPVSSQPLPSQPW
# T2: MAZ(ZF2-3) (human, UniProt P56270 279-329)
# T2 sequence: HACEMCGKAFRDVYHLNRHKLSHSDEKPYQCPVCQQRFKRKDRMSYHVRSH
# T3: MAZ(ZF4) (human, UniProt P56270 337-360)
# T3 chain: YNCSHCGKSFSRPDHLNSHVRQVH
# T4: MAZ(ZF3-4) (human, UniProt P56270 307-360)
# T4 sequence: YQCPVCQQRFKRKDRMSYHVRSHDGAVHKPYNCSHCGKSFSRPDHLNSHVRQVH
# T5: MAZ(ZF2-4) (human, UniProt P56270 279-360)
# T5 sequence: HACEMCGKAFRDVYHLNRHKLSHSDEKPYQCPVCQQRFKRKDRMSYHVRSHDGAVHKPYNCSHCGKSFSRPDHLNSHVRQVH
# B1: BS1 (dsDNA)
# DNA 1: AGGGGGAGGGGGCG
# DNA 2: CGCCCCCTCCCCCT
# B2: BCL2-G4 (structured_DNA)
# DNA: GGGCGCGGGAGGAATTGGGCGGG
# B3: TEL-G4 (structured_DNA)
# DNA: TAGGGTTAGGGTTAGGGTTAGGGTTAG
# B4: BS3 (dsDNA)
# DNA 1: GGGGGGCGGGGGCG
# DNA 2: CGCCCCCGCCCCCC
# B5: CCND1-G4 Mut1 (ssDNA)
# DNA: ATGAGAGCGAGAGAGAGACGAGAGCGAGCGCAGAGAGAGAGAGCGCGAGCG
# B6: BS2 (dsDNA)
# DNA 1: AGCGGGAGGGGGGC
# DNA 2: GCCCCCCTCCCGCT
# B7: CCND1-G4 Mut2 (structured_DNA)
# DNA: ATGGGAGCGAGAGGAGGGCGGGGGCGGACGCAGGAGGAGGGGGCGCGGGCG
# B8: CCND1-G4 WT (structured_DNA)
# DNA: B7 DNA with A10G, A15G, A28G, A35G
# B9: MYB-G4 (structured_DNA)
# DNA: GGAGGAGGAGGAGGAGGAGGAGGA
# B10: MYC-G4 (Table S2) (structured_DNA)
# DNA: TGAGGGTGGGTAGGGTGGGTAA
# B11: MDM2-G4 (structured_DNA)
# DNA: GGGGCGCGGGGCGCGGGGCATGGGG
# Legend:
# MAZ WT [1] = target: T1, MAZ WT; assay: EMSA; Binding buffer 250 mM HEPES, 500 mM KCl, 20 mM MgSO4, 10 mM DTT pH 8.0 (so in the source), on ice 30 min; G4 oligos annealed in 50 mM Tris-HCl, 50 mM KCl, 40% PEG200; 8% native PAGE (G4 gels with 100 mM KCl, 40% PEG200); details: protein: recombinant, tags: His6 (also mCherry-His6 fusion), label: FAM
# BRD4-IDR = BRD4-IDR (UniProt O60885 674-1351); assay: as above; details: protein: recombinant, tags: EGFP, His6, label: FAM
# MED1-IDR = MED1-IDR (UniProt Q15648 948-1574); assay: as above; details: protein: recombinant, tags: EGFP, His6, label: FAM
# MED1-IDR, sequence (Q15648 948-1574): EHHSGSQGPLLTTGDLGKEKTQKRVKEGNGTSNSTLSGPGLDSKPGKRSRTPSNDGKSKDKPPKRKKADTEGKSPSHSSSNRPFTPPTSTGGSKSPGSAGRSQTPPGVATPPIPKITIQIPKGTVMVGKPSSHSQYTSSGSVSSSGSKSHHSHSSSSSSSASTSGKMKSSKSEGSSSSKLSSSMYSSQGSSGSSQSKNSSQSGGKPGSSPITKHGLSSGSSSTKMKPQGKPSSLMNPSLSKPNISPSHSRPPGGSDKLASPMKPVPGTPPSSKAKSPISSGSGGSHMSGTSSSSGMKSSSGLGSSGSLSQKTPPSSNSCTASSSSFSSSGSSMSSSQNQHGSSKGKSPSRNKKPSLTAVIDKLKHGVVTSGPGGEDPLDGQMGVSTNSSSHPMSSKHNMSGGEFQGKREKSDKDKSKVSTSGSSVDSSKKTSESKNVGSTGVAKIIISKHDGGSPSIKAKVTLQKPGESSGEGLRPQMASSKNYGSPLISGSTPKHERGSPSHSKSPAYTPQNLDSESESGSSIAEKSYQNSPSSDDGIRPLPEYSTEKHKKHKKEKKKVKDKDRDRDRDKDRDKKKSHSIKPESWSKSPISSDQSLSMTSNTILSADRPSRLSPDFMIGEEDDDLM
# MAZ WT [2] = target: T1, MAZ WT; assay: EMSA; KCl-annealed; Binding buffer 250 mM HEPES, 500 mM KCl, 20 mM MgSO4, 10 mM DTT pH 8.0 (so in the source), on ice 30 min; G4 oligos annealed in 50 mM Tris-HCl, 50 mM KCl, 40% PEG200; 8% native PAGE (G4 gels with 100 mM KCl, 40% PEG200); details: protein: recombinant, tags: His6 (also mCherry-His6 fusion), label: FAM
# MAZ(ZF2-3) = target: T2, MAZ(ZF2-3); assay: EMSA; Binding buffer 250 mM HEPES, 500 mM KCl, 20 mM MgSO4, 10 mM DTT pH 8.0 (so in the source), on ice 30 min; G4 oligos annealed in 50 mM Tris-HCl, 50 mM KCl, 40% PEG200; 8% native PAGE (G4 gels with 100 mM KCl, 40% PEG200); details: protein: recombinant; tags: mCherry; His6; label: FAM; G4 parallel, intra- and/or intermolecular
# MAZ(ZF4) = target: T3, MAZ(ZF4); assay: as above; details: protein: recombinant; tags: mCherry; His6; label: FAM; G4 parallel, intra- and/or intermolecular
# MAZ(ZF3-4) = target: T4, MAZ(ZF3-4); assay: as above; details: protein: recombinant; tags: mCherry; His6; label: FAM; G4 parallel, intra- and/or intermolecular
# MAZ(ZF2-4) = target: T5, MAZ(ZF2-4); assay: as above; details: protein: recombinant; tags: mCherry; His6; label: FAM; G4 parallel, intra- and/or intermolecular
# MAZ WT [3] = target: T1, MAZ WT; assay: competition; unlabeled WT vs FAM-WT; Binding buffer 250 mM HEPES, 500 mM KCl, 20 mM MgSO4, 10 mM DTT pH 8.0 (so in the source), on ice 30 min; G4 oligos annealed in 50 mM Tris-HCl, 50 mM KCl, 40% PEG200; 8% native PAGE (G4 gels with 100 mM KCl, 40% PEG200); details: protein: recombinant; tags: His6 (also mCherry-His6 fusion); label: FAM; G4 parallel, intra- and/or intermolecular
# [4] = G4 parallel, intra- and/or intermolecular
binder,measurement,setting,value
B1,binding result,MAZ WT [1]; blunt,binds
B2,binding result,"MAZ WT [1]; G4 hybrid, 3 quartets",binds
B3,binding result,"MAZ WT [1]; G4 hybrid, 3 quartets",binds
B4,binding result,MAZ WT [1]; blunt,binds
B5,binding result,BRD4-IDR; no G4,no binding
same,binding result,MED1-IDR; no G4,no binding
same,binding result,MAZ WT [2]; no G4,no binding
B6,binding result,MAZ WT [1]; blunt,binds
B7,binding result,MAZ WT [2]; intermolecular parallel G4,binds
B8,binding result,MAZ(ZF2-3),no binding
same,binding result,BRD4-IDR; [4],binds
same,binding result,MAZ(ZF4),no binding
same,binding result,MAZ(ZF3-4),no binding
same,binding result,MED1-IDR; [4],binds
same,binding result,MAZ(ZF2-4),binds
same,binding result,MAZ WT [3],binds
B9,binding result,MAZ WT [1]; 2 G4s with two quartets,binds
B10,binding result,"MAZ WT [1]; G4 parallel, 3 quartets",binds
B11,binding result,"MAZ WT [1]; G4 antiparallel, 4 quartets",binds
